Tests used:
[1] = target: RSV A + RSV B bivalent composition (RSV subtype A; RSV subtype B); assay: AM14 Fab titration by SEC; Low-Fast cycle; 1 M 40°C
[2] = target: RSV A + RSV B bivalent composition (RSV subtype A; RSV subtype B); assay: AM14 Fab titration by SEC; High-Slow 1 cycle; 8 M 25°C
[3] = target: RSV A + RSV B bivalent composition (RSV subtype A; RSV subtype B); assay: AM14 Fab titration by SEC; High-Slow 1 cycle; 1 M 2-8°C
[4] = target: RSV A + RSV B bivalent composition (RSV subtype A; RSV subtype B); assay: AM14 Fab titration by SEC; Low-Fast cycle; 3 M 40°C (second value)
[5] = target: RSV A + RSV B bivalent composition (RSV subtype A; RSV subtype B); assay: AM14 Fab titration by SEC; High-Slow 1 cycle; 1 M 25°C (second value)
[6] = target: RSV A + RSV B bivalent composition (RSV subtype A; RSV subtype B); assay: AM14 Fab titration by SEC; High-Slow 1 cycle; 1 M 40°C (second value)
[7] = target: T1, RSV F protein of subtype A comprising a polypeptide of SEQ ID NO: 1 and a polypeptide of SEQ ID NO: 2 (RSV subtype A, UniProt P11209 137-513; P03420 26-109); assay: AM14 ELISA; F8 (pH 7, 50 mM NaCl, 0% sucrose); T0
T1 construct: Stabilized prefusion F trimer made of three F2-F1 heterodimers; Produced recombinantly in CHO cells; also called RSV A; RSVA
T1 chain 1: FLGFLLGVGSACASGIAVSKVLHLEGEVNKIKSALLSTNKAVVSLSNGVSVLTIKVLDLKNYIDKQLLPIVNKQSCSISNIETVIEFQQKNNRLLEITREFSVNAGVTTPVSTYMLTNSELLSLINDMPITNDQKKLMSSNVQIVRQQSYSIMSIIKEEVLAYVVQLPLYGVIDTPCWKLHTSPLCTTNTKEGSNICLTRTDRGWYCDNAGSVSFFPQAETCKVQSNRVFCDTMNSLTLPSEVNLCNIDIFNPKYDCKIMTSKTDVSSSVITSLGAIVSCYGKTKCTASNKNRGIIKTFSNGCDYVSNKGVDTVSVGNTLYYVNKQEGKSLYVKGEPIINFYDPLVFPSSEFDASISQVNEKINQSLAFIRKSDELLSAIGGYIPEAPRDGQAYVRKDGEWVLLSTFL
T1 chain 2: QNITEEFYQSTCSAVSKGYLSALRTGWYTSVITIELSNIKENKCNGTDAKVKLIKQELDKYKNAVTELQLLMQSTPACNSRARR

[8] = target: T1, RSV F protein of subtype A comprising a …; assay: AM14 ELISA; F2 (pH 8, 0 mM NaCl, 0% sucrose); 1 wk 5°C
[9] = target: T1, RSV F protein of subtype A comprising a …; assay: AM14 ELISA; F1 (pH 8, 100 mM NaCl, 0% sucrose); 2 wk 5°C
[10] = target: T1, RSV F protein of subtype A comprising a …; assay: AM14 ELISA; F7 (pH 6, 100 mM NaCl, 0% sucrose); 2 wk 5°C
[11] = target: T1, RSV F protein of subtype A comprising a …; assay: AM14 ELISA; F8 (pH 7, 50 mM NaCl, 0% sucrose); 1 wk 25°C
[12] = target: T1, RSV F protein of subtype A comprising a …; assay: AM14 ELISA; F9 (pH 8, 50 mM NaCl, 4.5% sucrose); 1 wk 5°C
[13] = target: T1, RSV F protein of subtype A comprising a …; assay: AM14 ELISA; F10 (pH 7, 50 mM NaCl, 4.5% sucrose); 2 wk 5°C
[14] = target: T1, RSV F protein of subtype A comprising a …; assay: AM14 ELISA; F9 (pH 8, 50 mM NaCl, 4.5% sucrose); 1 wk 25°C
[15] = target: T1, RSV F protein of subtype A comprising a …; assay: AM14 ELISA; F12 (pH 8, 100 mM NaCl, 9.0% sucrose); 2 wk 5°C
[16] = target: T1, RSV F protein of subtype A comprising a …; assay: AM14 ELISA; F13 (pH 7, 100 mM NaCl, 4.5% sucrose); 2 wk 5°C
[17] = target: T1, RSV F protein of subtype A comprising a …; assay: AM14 ELISA; F17 (pH 7, 50 mM NaCl, 4.5% trehalose); 2 wk 5°C

AM14 Fab
Prefusion Content (%) [1]: 65%
Prefusion Content (%) [2]: 63%
Prefusion Content (%) [3]: 52%
Prefusion Content (%) [4]: 66%
Prefusion Content (%) [5]: 65%
Prefusion Content (%) [6]: 46%

B1: AM14 (trimeric prefusion specific antibody of the AM14 ELISA) (antibody, V domains shown)
VH: EVQLVESGGGVVQPGRSLRLSCAASGFSFSHYAMHWVRQAPGKGLEWVAVISYDGENTYYADSVKGRFSISRDNSKNTVSLQMNSLRPEDTALYYCARDRIVDDYYYYGMDVWGQGATVTVSS
VL: DIQMTQSPSSLSASVGDRVTITCQASQDIKKYLNWYHQKPGKVPELLMHDASNLETGVPSRFSGRGSGTDFTLTISSLQPEDIGTYYCQQYDNLPPLTFGGGTKVEIKR
notes: Antibody as used in the AM14 ELISA, detected with an HRP-labeled secondary antibody
AM14 prefusion content (%), relative to standard [7]: 100%
AM14 prefusion content (%), relative to standard [8]: 86%
AM14 prefusion content (%), relative to standard [9]: 100%
AM14 prefusion content (%), relative to standard [10]: 38%
AM14 prefusion content (%), relative to standard [11]: 86%
AM14 prefusion content (%), relative to standard [12]: 94%
AM14 prefusion content (%), relative to standard [13]: 71%
AM14 prefusion content (%), relative to standard [14]: 84%
AM14 prefusion content (%), relative to standard [15]: 72%
AM14 prefusion content (%), relative to standard [16]: 75%
AM14 prefusion content (%), relative to standard [17]: 64%

Reference: patent US20260097113A1 (Pfizer, published 2026)
